{"source": "patent US20190025321A1", "about": "(WHITEHEAD INSTITUTE FOR BIOMEDICAL RESEARCH, published 2019)", "binders": {"B1": {"name": "HA-metap2 (other, UniProt P50579 1-478, looked up, not shown: small tags and cut ends)", "chain": "MAGVEEVAASGSHLNGDLDPDDREEGAASTAEEAAKKKRRKKKKSKGPSAAGEQEPDKESGASVDEVARQLERSALEDKERDEDDEDGDGDGDGATGKKKKKKKKKRGPKVQTDPPSVPICDLYPNGVFPKGQECEYPPTQDGRTAAWRTTSEEKKALDQASEEIWNDFREAAEAHRQVRKYVMSWIKPGMTMIEICEKLEDCSRKLIKENGLNAGLAFPTGCSLNNCAAHYTPNAGDTTVLQYDDICKIDFGTHISGRIIDCAFTVTFNPKYDTLLKAVKDATNTGIKCAGIDVRLCDVGEAIQEVMESYEVEIDGKTYQVKPIRNLNGHSIGQYRIHAGKTVPIVKGGEATRMEEGEVYAIETFGSTGKGVVHDDMECSHYMKNFDVGHVPIRLPRTKHLLNVINENFGTLAFCRRWLDRLGESKYLMALKNLCDLGIVDPYPPLCDIKGSYTAQFEHTILLRPTCKEVVSRGDDY", "notes": "Negative control of the co-immunoprecipitations; also called metap2 control protein"}}, "key": {"[1]": {"molecular_target": "T1, endogenous GATOR2 complex (Seh1L, WDR59, WDR24, Sec13 and Mios) (human, UniProt Q9NXC5 1-875; Q96S15 1-790; Q6PJI9 1-974; P55735 2-322; Q96EE3 1-360, limits assumed)", "T1 construct": "Five-subunit complex; In most blots its presence is read from the mios band; also called detected by mios", "assay": "co-immunoprecipitation, anti-HA IP from transfected HEK-293T cells starved of all amino acids 50 min, immunoblot for endogenous mios", "method": "FIG. 8A depicts validation of the anti-serum used to detect endogenous CASTOR2. Lysates were prepared from HEK-293T lines stably expressing the indicated shRNAs and analyzed by immunoblotting for levels of indicated proteins. FIG. 8B depicts validation of the anti-serum used to detect endogenous CASTOR1. Lysates were prepared from HEK-293T stably lines expressing the indicated shRNAs and analyzed as in (8C). The arrow denotes the band corresponding to endogenous CASTOR1. […] HEK-293T cells were cotransfected with the indicated cDNAs in expression vectors, starved of all amino acids for 50 minutes, and anti-HA immunoprecipitates were analyzed as in FIG. 1D. […] HEK-293T cells were cotransfected with the indicated cDNAs in expression vectors, starved of all amino acids for 50 minutes, and anti-HA immunoprecipitates were analyzed as in FIG. 1D."}, "HA-metap2 [2]": {"molecular_target": "B1", "assay": "co-immunoprecipitation, anti-HA IP from transfected HEK-293T cells"}, "GSK3β": {"molecular_target": "T2, GSK3β (human, UniProt P49841)", "T2 construct": "endogenous, untagged; also called endogenous GSK3β, control immunoprecipitation", "T2 sequence (P49841 whole entry)": "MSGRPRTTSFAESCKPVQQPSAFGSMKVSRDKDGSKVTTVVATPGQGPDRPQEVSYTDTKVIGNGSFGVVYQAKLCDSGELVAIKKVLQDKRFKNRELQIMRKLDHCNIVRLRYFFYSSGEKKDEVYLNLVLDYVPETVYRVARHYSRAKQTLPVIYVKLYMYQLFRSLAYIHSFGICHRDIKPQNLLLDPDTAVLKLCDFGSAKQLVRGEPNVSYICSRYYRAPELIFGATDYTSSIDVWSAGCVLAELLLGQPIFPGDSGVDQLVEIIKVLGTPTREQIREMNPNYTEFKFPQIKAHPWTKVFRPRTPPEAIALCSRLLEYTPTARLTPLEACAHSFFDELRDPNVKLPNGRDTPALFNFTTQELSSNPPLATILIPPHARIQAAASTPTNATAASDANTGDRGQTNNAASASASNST", "assay": "control immunoprecipitation with an anti-GSK3β antibody from HEK-293T cells starved of or restimulated with amino acids", "method": "FIG. 9A, FIG. 9B, FIG. 9C, FIG. 9D and FIG. 9E depict arginine regulates the interaction of GATOR2 with CASTOR1-containing complexes in cells and in vitro. […] HEK-293T cells cotransfected with the indicated cDNAs and stably expressing the indicated shRNAs were deprived of amino acids in the cell media for 50 min. Anti-HA immunoprecipitates were analyzed by immunoblotting for the indicated proteins. […] HEK-293T cells were starved or restimulated with amino acids, and immunoprecipitates were prepared from these cells using an antibody directed against GSK3β or WDR24. Immunoprecipitates were analyzed by immunoblotting for the indicated proteins. […] Stable expression lines of HEK-293T cells stably expressing the denoted proteins were cotransfected with the indicated cDNAs and treated as in FIG. 3A. Anti-HA immunoprecipitates were analyzed by immunoblotting for the levels of indicated proteins. FIG. 9D depicts deprivation of arginine, but not leucine, is sufficient to promote the association of endogenous GATOR2 with recombinant CASTOR1-CASTOR2 heterodimers. HEK-293T cells cotransfected with the indicated cDNAs were treated and analyzed as in FIG. 3C. […] Anti-HA immunoprecipitates were prepared and analyzed as in FIG. 3E."}, "[3]": {"molecular_target": "T1, endogenous GATOR2 complex (Seh1L, …)", "assay": "co-immunoprecipitation, anti-FLAG IP of GATOR2 from a HEK-293T line with endogenously FLAG-tagged WDR59, immunoblot for endogenous CASTOR1", "method": "(§1) FIG. 3A, FIG. 3B, FIG. 3C, FIG. 3D, FIG. 3E and FIG. 3F depict arginine regulates the interaction of GATOR2 with CASTOR1-homodimers and CASTOR1-CASTOR2 heterodimers in cells and in vitro. […] HEK-293T cells cotransfected with the indicated cDNAs were deprived of amino acids for 50 min or starved and restimulated with amino acids for 10 min. Anti-HA immunoprecipitates and cell lysates were analyzed by immunoblotting for levels of the indicated proteins. […] A HEK-293T cell line expressing endogenously FLAG-tagged WDR59 was treated as in (3A) and anti-FLAG immunoprecipitates were analyzed by immunoblotting for the indicated proteins. […] Cells were deprived of leucine, arginine, or all amino acids for 50 min, and restimulated for 10 min with the respective amino acids where indicated. Anti-HA immunoprecipitates were prepared and analyzed as in (3A). […] Anti-HA immunoprecipitates were prepared from HEK-293T cells expressing the indicated cDNAs and deprived of amino acids for 50 min. Indicated amino acids were added directly to the immunoprecipitates, which after re-washing, were analyzed as in (3A). […] The experiment was performed and analyzed as in (3D), except using the indicated concentrations of arginine. […] Anti-HA immunoprecipitates were prepared and analyzed as in (3A)."}, "HA-metap2 [4]": {"molecular_target": "B1", "assay": "co-immunoprecipitation, anti-HA IP from transfected HEK-293T cells, immunoblot for endogenous CASTOR1"}, "[5]": {"molecular_target": "T1, endogenous GATOR2 complex (Seh1L, …)", "assay": "co-immunoprecipitation, anti-HA IP from HEK-293T cells deprived 50 min of all amino acids, leucine or arginine, or restimulated 10 min; immunoblot for endogenous mios", "method": "as §1"}, "[6]": {"molecular_target": "complete GATOR2 complex, recombinant (WDR24-FLAG, WDR59, mios, sec13, seh1L co-expressed) (UniProt Q96S15 1-790; Q6PJI9 1-974; Q9NXC5 1-875; P55735 1-322; Q96EE3 1-360, limits assumed)", "assay": "co-immunoprecipitation, anti-FLAG IP (bait WDR24-FLAG) from co-transfected HEK-293T cells, immunoblot for HA-tagged CASTOR1", "source_text": "FIG. 7A, FIG. 7B, FIG. 7C, FIG. 7D, FIG. 7E and FIG. 7F depicts CASTOR1 and CASTOR2 homologs are present in vertebrates and invertebrates, and the CASTORs and Sestrins bind to distinct sites on GATOR2. […] Sequence alignments are colored with respect to sequence identity as in FIG. 1C. The first and second ACT domains are annotated above the alignment with blue and orange bars, respectively. […] The sequence alignment is annotated as in (7B). FIG. 7E depicts the GATOR2 components WDR24, mios, and seh1L form a minimal complex that is sufficient to co-immunoprecipitate CASTOR1. HEK-293T cells were cotransfected with the indicated cDNAs, and anti-FLAG immunoprecipitates were analyzed as in FIG. 1D.\nWhere indicated, for transient cotransfection experiments, 2 million HEK-293T cells were plated in 10 cm dishes and transfected 24 hrs later using the polyethylenimine method (Boussif et al., 1995) with the indicated pRK5-based expression vectors: 300 ng HA-metap2, 40 ng CASTOR1-HA, 80 ng CASTOR1-FLAG, 40 ng CASTOR2-HA, 80 ng CASTOR2-FLAG; 100 ng WDR24-FLAG, 100 ng WDR59, 100 ng mios, 150 ng sec13, 150 ng seh1L, 10 ng or 40 ng or 100 ng or 600 ng of myc-Sestrin2 or myc-CASTOR2; 2 ng FLAG-56K1, 15 ng or 60 ng HA-CASTOR2, 75 ng and 175 ng of CASTOR1-HA. The total amount of plasmid DNA in each transfection was normalized to 5 μg with empty pRK5. […]"}}, "data": [{"binder": "B1", "values": [{"measurement": "binding result", "setting": "[1]", "value": "no binding"}]}, {"binder": "endogenous CASTOR2 (other, human, UniProt A6NHX0 1-329, looked up, Detected with an anti-CASTOR2 antiserum; also called GATSL2) MELHILEHRLQVASVAKESIPLFTYGLIKLAFLSSKTRCKFFSLTETPEDYTIIVDEEGFLELPSSEHLSVADATWLALNVVSGGGSFSSSQPIGVTKIAKSVIAPLADQNISVFMLSTYQTDFILVRERDLPFVTHTLSSEFTILRVVNGETVAAENLGITNGFVKPKLVQRPVIHPLSSPSNRFCVTSLDPDTLPAVATLLMDVMFYSNGVKDPMATGDDCGHIRFFSFSLIEGYISLVMDVQTQQRFPSNLLFTSASGELWKMVRIGGQPLGFDECGIVAQISEPLAAADIPAYYISTFKFDHALVPEENINGVISALKVSQAEKH", "values": [{"measurement": "binding result", "setting": "HA-metap2 [2]", "value": "no binding"}, {"measurement": "binding result", "setting": "GSK3β", "value": "no binding"}]}, {"binder": "endogenous CASTOR1 (other, human, UniProt Q8WTX7 1-329, looked up, Detected with an anti-CASTOR1 antiserum; also called GATSL3) MELHILEHRVRVLSVARPGLWLYTHPLIKLLFLPRRSRCKFFSLTETPEDYTLMVDEEGFKELPPSEFLQVAEATWLVLNVSSHSGAAVQAAGVTKIARSVIAPLAEHHVSVLMLSTYQTDFILVREQDLSVVIHTLAQEFDIYREVGGEPVPVTRDDSSNGFPRTQHGPSPTVHPIQSPQNRFCVLTLDPETLPAIATTLIDVLFYSHSTPKEAASSSPEPSSITFFAFSLIEGYISIVMDAETQKKFPSDLLLTSSSGELWRMVRIGGQPLGFDECGIVAQIAGPLAAADISAYYISTFNFDHALVPEDGIGSVIEVLQRRQEGLAS", "values": [{"measurement": "binding result", "setting": "[3]", "value": "binds"}, {"measurement": "binding result", "setting": "HA-metap2 [4]", "value": "no binding"}]}, {"binder": "CASTOR1 homodimer (other, human, not shown: small tags and cut ends, also called CASTOR1-HA with CASTOR1-FLAG; CASTOR1-containing dimers) chain 1: MELHILEHRVRVLSVARPGLWLYTHPLIKLLFLPRRSRCKFFSLTETPEDYTLMVDEEGFKELPPSEFLQVAEATWLVLNVSSHSGAAVQAAGVTKIARSVIAPLAEHHVSVLMLSTYQTDFILVREQDLSVVIHTLAQEFDIYREVGGEPVPVTRDDSSNGFPRTQHGPSPTVHPIQSPQNRFCVLTLDPETLPAIATTLIDVLFYSHSTPKEAASSSPEPSSITFFAFSLIEGYISIVMDAETQKKFPSDLLLTSSSGELWRMVRIGGQPLGFDECGIVAQIAGPLAAADISAYYISTFNFDHALVPEDGIGSVIEVLQRRQEGLAS chain 2: MELHILEHRVRVLSVARPGLWLYTHPLIKLLFLPRRSRCKFFSLTETPEDYTLMVDEEGFKELPPSEFLQVAEATWLVLNVSSHSGAAVQAAGVTKIARSVIAPLAEHHVSVLMLSTYQTDFILVREQDLSVVIHTLAQEFDIYREVGGEPVPVTRDDSSNGFPRTQHGPSPTVHPIQSPQNRFCVLTLDPETLPAIATTLIDVLFYSHSTPKEAASSSPEPSSITFFAFSLIEGYISIVMDAETQKKFPSDLLLTSSSGELWRMVRIGGQPLGFDECGIVAQIAGPLAAADISAYYISTFNFDHALVPEDGIGSVIEVLQRRQEGLAS", "values": [{"measurement": "binding result", "setting": "[5]", "value": "binds"}]}, {"binder": "recombinant CASTOR1 (Cellular Arginine Sensor for mTORC1; protein encoded by the GATS protein-like 3 gene) (other, human, UniProt Q8WTX7 1-329, looked up, not shown: small tags and cut ends, Expressed from pRK5 vectors in HEK-293T cells; which tag was used depends on the experiment; also called GATSL3; CASTOR1-HA) MELHILEHRVRVLSVARPGLWLYTHPLIKLLFLPRRSRCKFFSLTETPEDYTLMVDEEGFKELPPSEFLQVAEATWLVLNVSSHSGAAVQAAGVTKIARSVIAPLAEHHVSVLMLSTYQTDFILVREQDLSVVIHTLAQEFDIYREVGGEPVPVTRDDSSNGFPRTQHGPSPTVHPIQSPQNRFCVLTLDPETLPAIATTLIDVLFYSHSTPKEAASSSPEPSSITFFAFSLIEGYISIVMDAETQKKFPSDLLLTSSSGELWRMVRIGGQPLGFDECGIVAQIAGPLAAADISAYYISTFNFDHALVPEDGIGSVIEVLQRRQEGLAS", "values": [{"measurement": "binding result", "setting": "[6]", "value": "binds"}]}]}
